Experimental data from article PMC2119236.

Legend:
[1] = target: H-2Db class I H chain, beta2m-free, in R1E-Db cells (mouse); assay: cross-linking
[2] = target: H-2Kb class I H chain, beta2m-free, in R1E-Kb cells (mouse); assay: cross-linking
Sequence of H-2Kb class I H chain, beta2m-free, in R1E-Kb cells (mouse) (P01901 22-369): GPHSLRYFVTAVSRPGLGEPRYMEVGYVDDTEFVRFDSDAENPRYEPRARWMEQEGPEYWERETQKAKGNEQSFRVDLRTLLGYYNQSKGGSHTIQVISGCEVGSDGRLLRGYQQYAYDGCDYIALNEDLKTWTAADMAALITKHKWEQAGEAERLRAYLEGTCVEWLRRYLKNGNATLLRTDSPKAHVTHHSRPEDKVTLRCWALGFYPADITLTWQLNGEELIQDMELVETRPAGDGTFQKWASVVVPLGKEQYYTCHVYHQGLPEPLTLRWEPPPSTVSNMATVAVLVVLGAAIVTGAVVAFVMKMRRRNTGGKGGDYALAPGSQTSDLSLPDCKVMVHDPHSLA

Sequence of H-2Db class I H chain, beta2m-free, in R1E-Db cells (mouse) (P01899 25-362): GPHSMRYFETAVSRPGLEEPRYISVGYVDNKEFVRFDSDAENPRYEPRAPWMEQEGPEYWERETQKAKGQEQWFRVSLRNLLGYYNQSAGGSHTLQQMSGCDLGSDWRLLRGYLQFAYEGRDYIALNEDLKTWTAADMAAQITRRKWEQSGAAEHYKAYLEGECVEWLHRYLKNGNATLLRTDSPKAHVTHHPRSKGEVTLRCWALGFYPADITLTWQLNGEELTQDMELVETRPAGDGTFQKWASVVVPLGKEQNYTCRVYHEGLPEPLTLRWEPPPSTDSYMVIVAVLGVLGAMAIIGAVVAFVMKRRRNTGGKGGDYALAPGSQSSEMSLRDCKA

B1: p88 (88-kD protein), murine (natural protein)
chain: HDGHDDDAIDIEDDLDDVIEEVEDSKSKSDASTPPSPKVTYKAPVPTGEVYFADSFDRGSLSGWILSKAKKDDTDDEIAKYDGKWEVDEMKETKLPGDKGLVLMSRAKHHAISAKLNKPFLFDTKPLIVQYEVNFQNGIECGGAYVKLLSKTAELSLDQFHDKTPYTIMFGPDKCGEDYKLHFIFRHKNPKTGVYEEKHAKRPDADLKTYFTDKKTHLYTLILNPDNSFEILVDQSVVNSGNLLNDMTPPVNPSREIEDPEDRKPEDWDERPKIADPDAVKPDDWDEDAPSKIPDEEATKPEGWLDDEPEYIPDPDAEKPEDWDEDMDGEWEAPQIANPKCESAPGCGVWQRPMIDNPNYKGKWKPPMIDNPNYQGIWKPRKIPNPDFFEDLEPFKMTPFSAIGLELWSMTSDIFFDNFIISGDRRVVDDWANDGWGLKKAADGAAEPGVVLQMLEAAEERPWLWVVYILTVALPVFLVILFCCSGKKQSNAMEYKKTDAPQPDVKDEEGKEEEKNKRDEEEEEEKLEEKQKSDAEEDGVTGSQDEEDSKPKAEEDEILNRSPRNRKPRRE
- percent of H chains crosslinked to p88 [1]: 25%
- percent of H chains crosslinked to p88 [2]: 50%
